According to patent US20140162285A1, “Methods of Modulating Vesicular Trafficking” (The General Hospital Corporation, priority 2009, published 2014):

Biological target: T1, ARNO(wt) (Homo sapiens, UniProt Q99418)
T1 construct: i) 1-400aa, full length ARNO(wt); GST (N); made in house; host or cells: E. coli BL21(DE3)
T1 sequence (Q99418 1-400): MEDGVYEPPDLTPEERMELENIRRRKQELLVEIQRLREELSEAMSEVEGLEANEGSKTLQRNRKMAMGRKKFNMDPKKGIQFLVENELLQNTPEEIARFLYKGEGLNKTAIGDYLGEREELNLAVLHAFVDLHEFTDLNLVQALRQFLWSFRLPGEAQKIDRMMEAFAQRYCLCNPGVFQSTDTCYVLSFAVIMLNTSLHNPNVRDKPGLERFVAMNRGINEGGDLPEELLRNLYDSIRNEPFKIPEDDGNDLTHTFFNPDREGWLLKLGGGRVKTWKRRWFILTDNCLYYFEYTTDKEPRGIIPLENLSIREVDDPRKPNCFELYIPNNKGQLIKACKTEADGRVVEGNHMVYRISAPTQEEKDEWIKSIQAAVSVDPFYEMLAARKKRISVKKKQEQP
Assay: surface plasmon resonance (BIAcore T100) kinetic analysis a2N(wt)/ARNO(wt)
Format: binding
Source text: 6A, Kinetic analysis and estimation of a dissociation constant (KD) for interaction between full-length a2N(wt) and ARNO(wt) proteins. Sensorgrams for the binding of recombinant a2N-6His immobilized as ligand on the sensor chip, with various concentrations of 6His-ARNO as analyte are shown as follows. The responses on the sensorgram are designated in resonance units (RU). […] 6B, Kinetic analysis and estimation of KD for interaction between a2N-01 peptide and Sec7-domain of ARNO. Sensorgrams for the binding of a2N-01 peptide immobilized as ligand on the sensor chip, with various concentrations of Sec7-domain as analyte are shown as follows. The responses on the sensorgram are designated in resonance units (RU).
All reagents, including buffers, sensor chips and the amine coupling kit, were obtained from GE Healthcare. For kinetic analysis of the binding of ARNO(wt) with a2N(wt), purified 6His-a2N (5 μg/ml) in 10 mM sodium acetate (pH 4.0) was immobilized at 80 response units (RU) on a CM4 sensor chip using an amine coupling kit according to the manufacturer's instructions. The same kit was used to perform blank immobilization to create a reference surface on the same chip. Samples of purified GST-ARNO(wt) at concentrations ranging from 0.25-4 μM were injected for 6 min over active and reference surfaces at a flow rate of 30 μl/min in NBS-EP, 1 mM DTT running buffer (10 mM Hepes, pH 7.4, 150 mM NaCl, 3 mM EDTA, 0.05% Surfactant P20, 1 mM DTT). For kinetic analysis of the binding of the ARNO Sec7-domain with a2N-01 peptide, neutravidin (10 μg/ml) in 10 mM sodium acetate (pH 5.0) was immobilized at about 1200 RU on two surfaces of a CM4 sensor chip using an amine coupling kit. Following that, biotinylated a2N-01 peptide (50 RU) and amine-PEG3-biotin (25 RU) were irreversibly captured by neutravidin to create active and a reference surfaces, respectively. Purified Sec7-6His recombinant protein was injected for 3.5 min over active and reference surfaces at concentrations ranging from 0.05-1 μM and a flow rate of 100 μl/min in NBS-EP, 1 mM DTT running buffer. Dissociation of the complexes was monitored for 10 min, and then the regeneration of the sensor surfaces was performed using 0.05% SDS with 1-min injection in the running buffer at a 20 μl/min flow rate. […] The dissociation constant (KD) was determined from the kon/koff values. To estimate affinity of interaction the corresponding free energy of binding ΔGbind=RTlnKD was calculated as previously described (Marles et al., Mol Cell 14 (2004) 813-823).
Specific concentration-dependent responses were obtained for both interactions. […] Calculated free energies for a2N(wt)/ARNO(wt) and a2N-01/Sec7 binding are −8.86 kcal mol^−1 and −8.81 kcal mol^−1, respectively (Marles et al., Mol Cell 14 (2004) 813-823). […]

[1] = a2N immobilized, ARNO as analyte, 25° C.

B1: a2N: recombinant N-terminal cytosolic tail, amino acid residues 1-402 of mouse V-ATPase a2-subunit (protein)
chain: MGSLFRSESMCLAQLFLQSGTAYECLSALGEKGLVQFRDLNQNVSSFQRKFVGEVKRCEELERILVYLVQEITRADIPLPEGEASPPAPPLKHVLEMQEQLQKLEVELREVTKNKEKLRKNLLELVEYTHMLRVTKTFLKRNVEFEPTYEEFPALENDSLLDYSCMQRLGAKLGFVSGLIQQGRVEAFERMLWRACKGYTIVTYAELDECLEDPETGEVIKWYVFLISFWGEQIGHKVKKICDCYHCHIYPYPNTAEERREIQEGLNTRIQDLYTVLHKTEDYLRQVLCKAAESVCSRVVQVRKMKAIYHMLNMCSFDVTNKCLIAEVWCPEVDLPGLRRALEEGSRESGATIPSFMNTIPTKETPPTLIRTNKFTEGFQNIVDAYGVGSYREVNPALFTII
modifications: left off: small tags and cut ends
notes: recombinant N-terminal cytosolic tail, amino acid residues 1-402 of mouse V-ATPase a2-subunit
Question: For B1, which Kd (a2N immobilized on sensor chip, ARNO as analyte, 25° C., bivalent analyte isotherm, read-out: dissociation constant KD) is on record?
Answer: 0.313 µM

Question: And the “association rate constant (kon)” value [1]?
Answer: 4.77×10^3 M^−1S^−1

Question: And the “dissociation rate constant (koff)” value [1]?
Answer: 14.95×10^−4 S^−1

Question: What about the “calculated free energy of binding” value (ΔGbind=RTlnKD) of the same molecule?
Answer: -37.1 kJ/mol
